According to publication PMC9142594:

How the values were obtained:
Assay in all cases: SPR; Biacore T200; His-tagged histones immobilised on sensor chip NTA; AGEs at 6.25, 12.5, 25, 50 and 100 µg/ml, single-cycle kinetics; 10 mM HEPES, 150 mM NaCl, 0.05% Tween-20; 25 °C; 30 µl/min
[1] = molecular target: His-tagged human histone H2B (human) (UniProt P06899)
[2] = molecular target: His-tagged human histone H2A (human) (UniProt P04908)
[3] = molecular target: His-tagged human histone H3 (human) (UniProt P68431)

Kd [1]: 0.0672 µM
Kd [2]: 0.0855 µM
Kd [3]: 0.0965 µM
Substance: advanced glycation end products (AGEs): bovine serum albumin modified with dehydroascorbic acid (DHA) (from UniProt P02769 25-607) (ligand)
